The source of these data is the nanobody polyreactivity screen of Harvey et al. (2022).

The data set can be described thus: yeast display, Sf9 membrane polyspecificity reagent, FACS + sequencing; frameworks hold sequencing errors. Put shortly:
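Using colony PCR, genes from sorted yeast display clones were amplified, then sequenced on MiSeq at 2 × 250 and filtered by CDR length. The clones had been stained with 10% biotinylated, detergent-solubilized Sf9 membrane reagent for 1 hour at 4 °C and sorted by FACS into low and high (top ~1%) gates on anti-HA and streptavidin fluorescence. Polyreactivity labels come from the gate of origin.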
As to “QVQLVESGGGLVQAGGSLRLSCAASGRIFVIYAMGWYRQAPGKERELVAAISYSGGSTYYADSVKGRFTISRDNAKNTVYLQMNSLKPEDTAVYYCAARVRGDYGHKYYQYDYWGQGTQVTVSS”, the “polyreactivity (PSR sort gate)” value is given as “low polyreactivity”. Turning to “QVQLVESGGGLVQAGGSLRLSCAASGRIFVKYAMGWYRQAPGKERELVAAISKSGGSTYYADSVKGRFTISRDNAKNTVYLQMNSLKPEDTAVYYCATRSREQYSVSYRLDYWGQGTQVTVSS”, the “polyreactivity (PSR sort gate)” value was “low polyreactivity”. For “QVQLVESGGGLVQAGGSLRLSCAASGRIFVKYGMGWYRQAPGKERELVAAISWTGGSTYYADSVKGRFTISRDNAKNTVYLQMNSLKPEDTAVYYCAAESWFKYDYWGQGTQVTVSS”, the “polyreactivity (PSR sort gate)” value is reported as “low polyreactivity”. On to “QVQLVESGGGLVQAGGSLRLSCAASGRIFVLYAMGWYRQAPGKERELVAAINWSGGSTFYADSVKGRFTISRDNAKNTVYLQMNSLKPEDTAVYYCAARRGYNDGYWGQGTQVTVSS”, for which the “polyreactivity (PSR sort gate)” value is “high polyreactivity”. Consider “QVQLVESGGGLVQAGGSLRLSCAASGRIFVNNAMGWYRQAPGKEREFDATITSSGGRTYYADSVKGRFTISRDNAKYTVYLQMNSLKPEDTAVYYCAARPQNNGRNPVYRYNYWGQGTQVTVSS”, for which the “polyreactivity (PSR sort gate)” value is recorded as “high polyreactivity”. Consider “QVQLVESGGGLVQAGGSLRLSCAASGRIFVPYAMGWYRQAPGKERELVAAISRNTGSTYYADSVKGRFTISRDNAKNTVYLQMNSLKPEDTAVYYCAAGSRVRYDGGYKINGYWGQGTQVTVSS”, for which the “polyreactivity (PSR sort gate)” value is “high polyreactivity”. Consider “QVQLVESGGGLVQAGGSLRLSCAASGRIFVPYAMGWYRQAPGKERELVAAISRSSPTYYADSVKGRFTISRDNAKNSVYLQMNSLKQEDTAGYYCAAAYYATTPKADYHFRGYEYWGQGTQVTVSS”, for which the “polyreactivity (PSR sort gate)” value was “high polyreactivity”. Consider “QVQLVESGGGLVQAGGSLRLSCAASGRIFVRNALGWYRQAPGKERELVAGINSGGGTTYADSVKGRFTISRDNAKNTVYLQMNSLKPEDTAVYYCAAGYWTRYWSWVDYWGQGTQVTVSS”, for which the “polyreactivity (PSR sort gate)” value was “high polyreactivity”. Regarding “QVQLVESGGGLVQAGGSLRLSCAASGRIFVRNAMGWYRQAPGKERELVATITSIGGRTYYADSVKGRFTISRDNAKNTVYLQMNSLKPEDTAVYYCAAYNTQSYPAYLRYDYWGQGTQVTVSS”, the “polyreactivity (PSR sort gate)” value is “low polyreactivity”. As to “QVQLVESGGGLVQAGGSLRLSCAASGRIFVRNVMGWYRQAPGQERELVARITSGGSTNYADSVKGRFTISRDNAKNTVYLQINSLKPEDTAVYYCAAQGRHYHRTSTGYDYWGQGTQVTVSS”, the “polyreactivity (PSR sort gate)” value is “high polyreactivity”. For “QVQLVESGGGLVQAGGSLRLSCAASGRIFVRYAMGWYRQAPGKERELVAAISYRGGSTYYADSVKGRFTISRDNAKNTVYLQMNSLKPEDTAVYYCAARNSYGNWRYYYWGQGTQVTVSS” the value was “high polyreactivity”.

Consider “QVQLVESGGGLVQAGGSLRLSCAASGRIFVRYAMGWYRQAPGKERELVASIRSGGSTNYADSVKGRFTISRDNAKNTVYLQMNSLKPEDTAVYYCAAVLRPVRFYSGYYYWGQGTQVTVSS”, for which the “polyreactivity (PSR sort gate)” value is listed as “high polyreactivity”. On to “QVQLVESGGGLVQAGGSLRLSCAASGRIFVRYDRGWYRQAPGKERELVAAISSSDGSTYYADSVKGRFTISRDNAKNTVYLQMNSLKPEDTAVYYCNADVSLDDYDYWGQGTQVTVSS”, for which the “polyreactivity (PSR sort gate)” value was “low polyreactivity”.

Turning to “QVQLVESGGGLVQAGGSLRLSCAASGRIFVRYTMGWYRQAPGKERELVARITSGGSTNYADSVKGRFTISRDNAKNTVYLQMNSLKPEDTAVYYCAKSYGPRFGYWGQGTQVTVSS”, the “polyreactivity (PSR sort gate)” value was “low polyreactivity”. Regarding “QVQLVESGGGLVQAGGSLRLSCAASGRIFVSNAMGWYRQAPGKERELVAAISSSGGSTYYADSVKGRFTISRDNAKNTVYLQMNSLKPEDTAVYYCNVLGQRYYPSGRNYWGQGTQVTVSS”, the “polyreactivity (PSR sort gate)” value was “high polyreactivity”. For “QVQLVESGGGLVQAGGSLRLSCAASGRIFVSNAMGWYRQAPGKERELVACITWTSGSTYYADSVKGRFTISRDNAKNTVYLQMNSLKPEDTAVYYCAAEYWYGNAFDYWGQGTQVTVSS”, the “polyreactivity (PSR sort gate)” value is “low polyreactivity”. In the case of “QVQLVESGGGLVQAGGSLRLSCAASGRIFVSNAMGWYRQAPGKERELVAGITWTSGSTYYADSVKGRFTISRDNAKNTFYLQMNSLKPEDSAVYYCAAEFWYGNALDYWGQGTQVTVSS”, the “polyreactivity (PSR sort gate)” value is on record as “low polyreactivity”. The result for “QVQLVESGGGLVQAGGSLRLSCAASGRIFVSNDMGWYSQAPGKERELVAAISWSDDSTHYADSVKGRLTISRDNAKNTVYLQMNSLKPEDTAVYYCNKQRYYSTWRYDYWGQGTQVTVSS” reads “low polyreactivity”; that for “QVQLVESGGGLVQAGGSLRLSCAASGRIFVSNTMGWYRQAPGKDWEWVAAITSVGSTNYADSVKGRFTISRDHAKNTVYLQMNSLKPEDTAVYYCNADNPYSDGADSLGNYWGQGTQVTVSS”, “low polyreactivity”; that for “QVQLVESGGGLVQAGGSLRLSCAASGRIFVTNAMGWYRQAPGKEREMVAAITRRGGRTYYADSVKGRFTISRDNAKNTVYLQMHSLKREDTAVYYCAAERYPEAGSPYGTAEMDYWGQGTQVTVSS”, “high polyreactivity”.

As for “QVQLVESGGGLVQAGGSLRLSCAASGRIFVTNTMGWYRQAPGKERELVAAIDNSAGSTYYADSVKGRFTISRDNAKNTVYLQMNSLKPEDTAVYYCAADYPPYYGYGYWGQGTQVSVSS”, the “polyreactivity (PSR sort gate)” value is recorded as “low polyreactivity”. For the sequence “QVQLVESGGGLVQAGGSLRLSCAASGRIFVVNAMGWYRQAPGKERELVAAITRRGGSTYADSVKGRFTISRDNAKNTVYLQMNSLKPEDTAVYYCNKLVTGGSWSPGHYRYNYWGQGTQVTVSS”, the “polyreactivity (PSR sort gate)” value was “high polyreactivity”. As to “QVQLVESGGGLVQAGGSLRLSCAASGRIFVVYAMGWYRQAPGKERELVAAITRSGGRTFYAASVKGRFTISRDNATNTVYLQMYSQKPEDTAVYYCNKVDRFYLRLVYWGQGTQVTVAS”, the “polyreactivity (PSR sort gate)” value was “high polyreactivity”. Regarding “QVQLVESGGGLVQAGGSLRLSCAASGRIFVVYAMGWYRQAPGKERELVAAITYGGGSTHYADSVKGRFTISRDNAKNTVYLQINSLIPEDTAVYYCAADLFYHSYGYEYWGQGTQVTVSS”, the “polyreactivity (PSR sort gate)” value is reported as “low polyreactivity”.

In the case of “QVQLVESGGGLVQAGGSLRLSCAASGRIFVVYAMGWYRQAPGKERELVASITWRGGSTYYADSVKGRFTISRDNAKNTVDLQMNSLKPEDTAVYYCAAELDVYVSIGSRFHFDYCGQGTQVTVSS”, the “polyreactivity (PSR sort gate)” value is recorded as “low polyreactivity”. Turning to “QVQLVESGGGLVQAGGSLRLSCAASGRIFVWNTMGWYRQAPGKERELVAAITSGGSTTYADSVKGRFTISRDNAKNTVYLQMNSLKPEDTAVYYCNTELDLYHPGDDYWGQGTQVTVSS”, the “polyreactivity (PSR sort gate)” value is reported as “high polyreactivity”. As to “QVQLVESGGGLVQAGGSLRLSCAASGRIFVWNVMGWYRQAPGKERELVAAITYSGDTTYYADSVKGRFTISRDNAKNTVYLQMNSLKPEDTAFYYCAAVRRGGGVKYDYWGQGTQVTVSS”, the “polyreactivity (PSR sort gate)” value is listed as “high polyreactivity”. Turning to “QVQLVESGGGLVQAGGSLRLSCAASGRIFVYNAMGWYRQAPGKERELVAAITRGGSTYYADSVKGRFTISRDNAKNTVYLQMNSLKPEDTAVYYCASDYQRNDFRWYDYWGQGTQVTVSS”, the “polyreactivity (PSR sort gate)” value is “low polyreactivity”. The result for “QVQLVESGGGLVQAGGSLRLSCAASGRIFVYNVMGWYSQAPGKERELVAAISWGTGSTYADSVKGRFTISRANAKNSVYLQMNSLKPEDTAVYYCAADSFIPPYDHWGQGTQVTVSS” reads “low polyreactivity”; that for “QVQLVESGGGLVQAGGSLRLSCAASGRIFVYYAMGWYRQAPGKERELVASISYSGASTYYADSVKGRFTISRDNAKNTVYLQMYSLKPEDTAVYYCNTDGDDFFHVIYDYWGQGTQVTVSS”, “low polyreactivity”.
